Assay results taken from PMC3087488 (Journal of Oncology, 2011).
Several values for one entry are separate records, joined by “and”; a condition that tells them apart may be missing. Equal entries are not always repeated.

How the values were obtained:
[1] = plasma gemcitabine concentration in patients; format: in vivo, human; conditions: completion of infusion, gemcitabine 1250 mg/m^2
Protocol: Plasma motesanib and gemcitabine concentrations were analyzed using a validated liquid chromatography/tandem mass spectrometry (LC-MS/MS) method, respectively. […] All pharmacokinetic parameter estimates were calculated using standard noncompartmental methods and WinNonlin Professional software on […] (Version 5.1.1, Pharsight Corporation, Mountain View, Calif, USA).

[2] = bevacizumab 15-mg/kg cohort plus carboplatin/paclitaxel; locally advanced or metastatic NSCLC; grade 3/4, n = 5; cited from earlier work
[3] = serum panitumumab concentration in patients; format: in vivo, human; conditions: panitumumab 9 mg/kg
[4] = adverse events in patients (CTCAE version 3.0); format: in vivo, human
Protocol: Adverse events were recorded throughout the study and graded (including DLTs) according to the Common Terminology Criteria for Adverse Events, version 3.0. Samples for assessment of hematology, blood chemistry, urinalysis, and thyroid function were collected on day 1 of each cycle.

[5] = 8 patients who received panitumumab and gemcitabine/cisplatin only
[6] = all 41 patients (7%), only in patients who also received motesanib

Q: What does the source list for `Nc1ccn([C@@H]2O[C@H](CO)[C@@H](O)C2(F)F)c(=O)n1` [gemcitabine]?
A: Plasma gemcitabine concentration (cycle 1), mean (SD) ([1]; No motesanib (0 mg QD), n 8): 11000 ng/mL and 11000 (4220) ng/mL; Plasma gemcitabine concentration (cycle 1), mean (SD) ([1]; with motesanib 50 mg QD, n 8): 8450 (7310) ng/mL; Plasma gemcitabine concentration (cycle 1), mean ([1]; with motesanib 75 mg BID, n 2): 8290 (NR) ng/mL; Plasma gemcitabine concentration (cycle 1), mean (SD) ([1]; with motesanib 75 mg QD, n 6): 14400 (6020) ng/mL; Plasma gemcitabine concentration (cycle 1), mean (SD) ([1]; with motesanib 100 mg QD, n 6): 6160 (3690) ng/mL; Plasma gemcitabine concentration (cycle 1), mean (SD) ([1]; with motesanib 125 mg QD, n 11): 16100 ng/mL and 16100 (6800) ng/mL

Q: With bevacizumab as the compound, how does the “patient incidence rate of thrombotic events” value [2] read?
A: 17.6%

Q: What does the source list for panitumumab?
A: Serum panitumumab, Cycle 4 postdose mean concentration (SD) ([3]; No motesanib (0 mg QD), n 3): 275 (118) μg/mL; Serum panitumumab, Cycle 4 predose mean concentration (SD) ([3]; No motesanib (0 mg QD), n 4): 56.5 (39.6) μg/mL; Serum panitumumab, Cycle 2 postdose mean concentration (SD) ([3]; No motesanib (0 mg QD), n 6): 186 (62.9) μg/mL; Serum panitumumab, Cycle 2 predose mean concentration (SD) ([3]; No motesanib (0 mg QD), n 6): 11.2 (15.5) μg/mL; Serum panitumumab, Cycle 1 postdose mean concentration (SD) ([3]; No motesanib (0 mg QD), n 8): 206 (76.4) μg/mL; Serum panitumumab, Cycle 4 postdose mean concentration (SD) ([3]; with motesanib 50 mg QD, n 3): 232 (52.8) μg/mL; Serum panitumumab, Cycle 4 predose mean concentration (SD) ([3]; with motesanib 50 mg QD, n 3): 10.5 (6.4) μg/mL; Serum panitumumab, Cycle 2 postdose mean concentration (SD) ([3]; with motesanib 50 mg QD, n 5): 193 (37.5) μg/mL; Serum panitumumab, Cycle 1 postdose mean concentration (SD) ([3]; with motesanib 50 mg QD, n 7): 174 (24.9) μg/mL; Serum panitumumab, Cycle 2 predose mean concentration (SD) ([3]; with motesanib 50 mg QD, n 7): 9.0 (5.8) μg/mL; Serum panitumumab, Cycle 2 postdose mean concentration ([3]; with motesanib 75 mg BID, n 1): 217 (NR) μg/mL; Serum panitumumab, Cycle 2 predose mean concentration ([3]; with motesanib 75 mg BID, n 1): 11.2 (NR) μg/mL; Serum panitumumab, Cycle 1 postdose mean concentration ([3]; with motesanib 75 mg BID, n 2): 189 (NR) μg/mL; Serum panitumumab, Cycle 4 predose mean concentration (SD) ([3]; with motesanib 75 mg QD, n 5): 32.5 (21.3) μg/mL; Serum panitumumab, Cycle 1 postdose mean concentration (SD) ([3]; with motesanib 75 mg QD, n 6): 158 (24.2) μg/mL; Serum panitumumab, Cycle 2 postdose mean concentration (SD) ([3]; with motesanib 75 mg QD, n 6): 194 (21.5) μg/mL; Serum panitumumab, Cycle 2 predose mean concentration (SD) ([3]; with motesanib 75 mg QD, n 6): 13.1 (13.5) μg/mL; Serum panitumumab, Cycle 4 postdose mean concentration (SD) ([3]; with motesanib 75 mg QD, n 6): 218 (26.1) μg/mL; Serum panitumumab, Cycle 4 postdose mean concentration ([3]; with motesanib 100 mg QD, n 2): 290 (NR) μg/mL; Serum panitumumab, Cycle 2 postdose mean concentration (SD) ([3]; with motesanib 100 mg QD, n 4): 224 (51.8) μg/mL; Serum panitumumab, Cycle 4 predose mean concentration (SD) ([3]; with motesanib 100 mg QD, n 4): 41.6 (16.5) μg/mL; Serum panitumumab, Cycle 1 postdose mean concentration (SD) ([3]; with motesanib 100 mg QD, n 5): 194 (27.1) μg/mL; Serum panitumumab, Cycle 2 predose mean concentration (SD) ([3]; with motesanib 100 mg QD, n 5): 18.9 (10.7) μg/mL; Serum panitumumab, Cycle 4 postdose mean concentration (SD) ([3]; with motesanib 125 mg QD, n 3): 170 (55.0) μg/mL; Serum panitumumab, Cycle 4 predose mean concentration (SD) ([3]; with motesanib 125 mg QD, n 3): 21.7 (22.0) μg/mL; Serum panitumumab, Cycle 2 postdose mean concentration (SD) ([3]; with motesanib 125 mg QD, n 6): 213 (39.0) μg/mL; Serum panitumumab, Cycle 2 predose mean concentration (SD) ([3]; with motesanib 125 mg QD, n 6): 13.4 (14.2) μg/mL; Serum panitumumab, Cycle 1 postdose mean concentration (SD) ([3]; with motesanib 125 mg QD, n 11): 203 (82.9) μg/mL; panitumumab-related dermatitis acneiform [4, 5]: 5 patients; panitumumab-related erythema [4, 5]: 5 patients; panitumumab-related nausea [4, 5]: 6 patients; panitumumab-related pruritus [4, 5]: 5 patients; panitumumab-related rash [4, 5]: 6 patients; panitumumab-related anemia ([4]; all 41 patients): 7 patients; panitumumab-related anorexia ([4]; all 41 patients): 11 patients; panitumumab-related diarrhea ([4]; all 41 patients): 16 patients; panitumumab-related dry skin ([4]; all 41 patients): 7 patients; panitumumab-related fatigue ([4]; all 41 patients): 19 patients; panitumumab-related hypomagnesemia ([4]; all 41 patients): 17 patients; panitumumab-related nausea ([4]; all 41 patients): 21 patients; panitumumab-related pruritus ([4]; all 41 patients): 18 patients; panitumumab-related rash ([4]; all 41 patients): 22 patients; panitumumab-related vomiting ([4]; all 41 patients): 12 patients; serious panitumumab-related diarrhea ([4]; all 41 patients (5%)): 2 patients; serious panitumumab-related dehydration ([4]; all 41 patients (7%)): 3 patients; serious panitumumab-related deep vein thrombosis [4, 6]: 3 patients; serious panitumumab-related pulmonary embolism [4, 6]: 3 patients; patients with serious panitumumab-related events ([4]; all 41 patients, eleven patients): 27%; patients who discontinued panitumumab because of adverse events ([4]; all cohorts): 11 patients
